Results from publication PMC5101909, “Crosslinked duplex DNA nanogels that target specified proteins”.

B1: P(MPC/aptaDNA)/P(MPC/coDNA) nanogel (mixed)
DNA 1: TTTTTTTGCTCCGGTTGGTGTGGTTGG
DNA 2: TTTTTTTTTTTTCCAACCGGAGC
modifications: 5'-acrydite of both strands copolymerized with MPC (38/1 and 45/1)

What was measured:
albumin (BSA) = albumin (BSA) (bovine, UniProt P02769 25-607); test: EtBr fluorescence (duplex displacement); EtBr-loaded nanogel; Nanogels generated in PBS; buffer, pH and temperature of thrombin binding assays not in the material (section 2.5 text missing); conditions: label: EtBr intercalated; 11 bp GCTCCGGTTGG/CCAACCGGAGC; 5' overhangs 7 nt T (aptaDNA) and 12 nt T (coDNA); 3' overhang 9 nt TGTGGTTGG (aptaDNA)
thrombin [1] = molecular target: T1, thrombin (UniProt P00734;P00734 328-363;364-622); test: EtBr fluorescence decrease (duplex displacement); EtBr-loaded nanogel; concentration dependent; Nanogels generated in PBS; buffer, pH and temperature of thrombin binding assays not in the material (section 2.5 text missing)
thrombin [2] = molecular target: T1, thrombin; test: EMSA (agarose gel, SYBR Gold); aptamer polymer/thrombin 1/10; Nanogels generated in PBS; buffer, pH and temperature of thrombin binding assays not in the material (section 2.5 text missing)

Sequence of albumin (BSA) (P02769 25-607): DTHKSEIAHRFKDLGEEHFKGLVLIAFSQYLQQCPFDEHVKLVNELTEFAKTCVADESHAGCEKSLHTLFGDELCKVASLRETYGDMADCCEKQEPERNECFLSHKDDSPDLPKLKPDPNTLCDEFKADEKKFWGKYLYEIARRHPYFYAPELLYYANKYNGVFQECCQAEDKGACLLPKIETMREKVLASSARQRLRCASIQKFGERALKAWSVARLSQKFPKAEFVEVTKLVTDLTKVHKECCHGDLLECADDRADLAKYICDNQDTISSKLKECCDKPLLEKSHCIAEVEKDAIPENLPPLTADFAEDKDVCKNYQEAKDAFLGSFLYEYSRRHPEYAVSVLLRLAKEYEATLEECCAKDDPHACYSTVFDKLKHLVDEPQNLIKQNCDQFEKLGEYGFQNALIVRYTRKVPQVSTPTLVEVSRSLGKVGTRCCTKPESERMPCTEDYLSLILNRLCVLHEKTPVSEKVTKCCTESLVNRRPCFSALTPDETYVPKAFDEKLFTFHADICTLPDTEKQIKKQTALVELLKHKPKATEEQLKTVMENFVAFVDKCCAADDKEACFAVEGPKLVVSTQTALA

Row | Binder | binding result (albumin (BSA)) | binding result (thrombin [1]) | binding result (thrombin [2])
1 | B1 | no binding | binds | 
2 | TTTTTTTGCTCCGGTTGGTGTGGTTGG (structured_DNA, 5'-acrydite copolymerized with MPC (MPC/oligo 38/1)) [P(MPC/aptaDNA)] |  |  | binds
